Experimental findings from US20250059282A1 (University of Texas, published 2025) are described below.

Experiment [1] concerns the target T1, Mouse PD-L1-Fc (mouse, UniProt Q9EP73 19-239, limits assumed).
T1 construct: also called murine PD-L1; not shown: Fc
As to the kind of experiment: ForteBio, IgG, avid. (In general: Biolayer interferometry detects binding as a change in optical thickness at a sensor tip.)

The target in experiment [2] is T2, Cyno PD-L1-Fc (cynomolgus, UniProt G7PSE7 19-238).
T2 construct: also called cynomolgus PD-L1
T2 sequence (G7PSE7 entry or part of it limits assumed): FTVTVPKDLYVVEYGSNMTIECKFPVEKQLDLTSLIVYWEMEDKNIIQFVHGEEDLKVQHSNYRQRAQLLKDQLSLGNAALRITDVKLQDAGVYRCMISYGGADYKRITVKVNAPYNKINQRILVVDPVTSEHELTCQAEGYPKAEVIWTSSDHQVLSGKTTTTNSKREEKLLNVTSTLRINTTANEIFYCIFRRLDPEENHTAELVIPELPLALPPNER
Briefly: ForteBio, IgG, avid.

Experiment [3] addresses T3, Cyno PD-L2-Fc (cynomolgus, UniProt A0A2K5U5Z4 20-220).
T3 construct: also called cynomolgus PD-L2; not shown: Fc
T3 sequence: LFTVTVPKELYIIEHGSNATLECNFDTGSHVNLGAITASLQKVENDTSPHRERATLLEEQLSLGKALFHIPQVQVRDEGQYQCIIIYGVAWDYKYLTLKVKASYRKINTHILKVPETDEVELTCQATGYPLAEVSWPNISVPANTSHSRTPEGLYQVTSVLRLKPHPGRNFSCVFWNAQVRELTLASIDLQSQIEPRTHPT
Briefly: ForteBio, IgG, avid.

Experiment [4] addresses T4, Mouse PD-L2-Fc (mouse, UniProt Q9WUL5 20-219, limits assumed).
T4 construct: also called murine PD-L2; not shown: Fc
T4 sequence (looked up): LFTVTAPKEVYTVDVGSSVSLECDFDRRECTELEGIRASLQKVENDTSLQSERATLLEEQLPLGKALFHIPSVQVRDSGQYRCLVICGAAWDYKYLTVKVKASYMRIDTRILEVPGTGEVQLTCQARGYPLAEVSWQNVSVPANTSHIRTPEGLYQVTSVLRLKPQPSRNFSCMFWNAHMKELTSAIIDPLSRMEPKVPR
Briefly: ForteBio, IgG, avid.

For experiment [5], the target named is human PD-L1 on CHO cells (human, UniProt Q9NZQ7 19-290). Briefly: cell-based or functional assay.
human PD-L1 on CHO cells, sequence (Q9NZQ7 19-290 limits assumed): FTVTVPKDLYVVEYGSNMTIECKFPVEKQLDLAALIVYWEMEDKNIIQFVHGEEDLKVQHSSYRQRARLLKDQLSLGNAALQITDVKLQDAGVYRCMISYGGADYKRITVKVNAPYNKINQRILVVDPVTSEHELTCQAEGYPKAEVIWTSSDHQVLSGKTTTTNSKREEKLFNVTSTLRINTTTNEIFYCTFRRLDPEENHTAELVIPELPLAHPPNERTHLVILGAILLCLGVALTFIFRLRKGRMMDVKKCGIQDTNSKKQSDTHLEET
The target of experiment [6] is T5, human PD-L2 on CHO cells (human, UniProt Q9BQ51 20-273).
T5 sequence: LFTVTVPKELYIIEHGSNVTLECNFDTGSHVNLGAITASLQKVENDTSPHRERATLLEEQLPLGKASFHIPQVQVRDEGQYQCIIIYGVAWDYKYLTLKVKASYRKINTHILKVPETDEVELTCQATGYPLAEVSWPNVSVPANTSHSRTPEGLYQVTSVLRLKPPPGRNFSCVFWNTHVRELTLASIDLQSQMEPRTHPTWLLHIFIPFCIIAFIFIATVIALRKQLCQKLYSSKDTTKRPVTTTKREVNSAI
Briefly: cell-based or functional assay.

The target of experiment [7] is T6, Human PD-L1-HIS (human, UniProt Q9NZQ7 19-238).
T6 construct: also called HIS-tagged monovalent PD-L1; His-tagged human PD-L1; not shown: His tag
T6 sequence (Q9NZQ7 19-238 limits assumed): as the sequence (G7PSE7 entry or part of it limits assumed) above, with T33A, S34A, N62S, Q68R, R82Q, L173F, A185T, I192T, L215H counted along it
As to the kind of experiment: ForteBio, IgG, monovalent.

For experiment [8], the target named is T7, Human PD-L2-HIS (human, UniProt Q9BQ51 20-220).
T7 construct: also called His-tagged human PD-L2; not shown: His tag
T7 sequence: T3 sequence with A19V, S62P, L67S, I139V, H166P, A178T, Q179H, I194M
Briefly: ForteBio, IgG, monovalent.

Experiment [9] deals with T8, Human PD-L2-Fc (human, UniProt Q9BQ51 20-220).
T8 construct: also called dimeric PD-L2; PD-L2 (dimeric ligand); not shown: human IgG1 Fc constant region
T8 sequence: T3 sequence with A19V, S62P, L67S, I139V, H166P, A178T, Q179H, I194M
Briefly: ForteBio, Fab, monovalent. The procedure: (§1) ForteBio KD measurements—ForteBio affinity measurements were performed on an Octet® RED384 generally as previously described (see, e.g., Estep et al., 2013). Briefly, ForteBio affinity measurements were performed by loading IgGs on-line onto AHQ sensors. Sensors were equilibrated off-line in assay buffer for 30 min and then monitored on-line for 60 seconds for baseline establishment. Sensors with loaded IgGs were exposed to 100 nM antigen for 3 minutes, and afterwards were transferred to assay buffer for 3 min for off-rate measurement. For monovalent affinity assessment Fabs were used instead of IgGs. For this assessment the […] Fc fusion antigen was loaded on-line onto the AHQ sensors. Sensors were equilibrated off-line in assay buffer for 30 min and then monitored on-line for 60 seconds for baseline establishment. Sensors with loaded antigen were exposed to 100 nM Fab for 3 minutes, and afterwards they were transferred to assay buffer for 3 min for off-rate measurement. All kinetics were analyzed using the 1:1 binding model.

The target in experiment [10] is T9, Human PD-L1-Fc (human, UniProt Q9NZQ7 19-238).
T9 construct: also called dimeric PD-L1; PD-L1 (dimeric ligand); not shown: human IgG1 Fc constant region
T9 sequence (Q9NZQ7 19-238 limits assumed): as the sequence (G7PSE7 entry or part of it limits assumed) above, with T33A, S34A, N62S, Q68R, R82Q, L173F, A185T, I192T, L215H counted along it
As to the kind of experiment: ForteBio, Fab, monovalent. The method, then:
as §1

Experiment [11] addresses T8, Human PD-L2-Fc. As to the kind of experiment: ForteBio Octet, Fab, monovalent. The method, then:
as §1

The target in experiment [12] is T9, Human PD-L1-Fc. Briefly: ForteBio Octet, Fab, monovalent. The procedure:
as §1

Experiment [13] addresses T10, Human b-PD-L2-His (human, UniProt Q9BQ51 20-220, biotinylated (b-); sites not stated).
T10 construct: Antigen of the MSD-SET measurements; also called biotinylated human PD-L2-His; not shown: His tag
T10 sequence: T3 sequence with A19V, S62P, L67S, I139V, H166P, A178T, Q179H, I194M
As to the kind of experiment: MSD-SET, Fab, monovalent. The method, then:
(§2) Briefly, solution equilibrium titrations (SET) were performed in PBS +0.1% IgG-Free BSA (PBSF) with antigen held constant at 50 pM and incubated with 3- to 5-fold serial dilutions of Fab starting at 20 nM. Antibodies (20 nM in PBS) were coated onto standard bind MSD®-ECL plates overnight at 4° C. or at room temperature for 30 min. Plates were then blocked by BSA for 30 min with shaking at 700 rpm, followed by three washes with wash buffer (PBSF+0.05% Tween 20). SET samples were applied and incubated on the plates for 150 s with shaking at 700 rpm followed by one wash. Antigen captured on a plate was detected with 250 ng/mL sulfotag-labeled streptavidin in PBSF by incubation on the plate for 3 min. The plates were washed three times with wash buffer and then read on the MSD® Sector Imager 2400 instrument using 1× Read Buffer T with surfactant. The percent free antigen was plotted as a function of titrated antibody in Prism and fit to a quadratic equation to extract the KD. To improve throughput, liquid handling robots were used throughout MSD®-SET experiments, including SET sample preparation.

The target of experiment [14] is T11, Human b-PD-L1-His (human, UniProt Q9NZQ7 19-238, biotinylated (b-); sites not stated).
T11 construct: Antigen of the MSD-SET measurements; also called biotinylated human PD-L1-His; not shown: His tag
T11 sequence (Q9NZQ7 19-238 limits assumed): as the sequence (G7PSE7 entry or part of it limits assumed) above, with T33A, S34A, N62S, Q68R, R82Q, L173F, A185T, I192T, L215H counted along it
Briefly: MSD-SET, Fab, monovalent. The procedure:
as §2

In experiment [15] the target is T10, Human b-PD-L2-His. Briefly: MSD-SET, Fab, monovalent. The method, then:
as §2
The source holds these as a separate data set.

Experiment [16] addresses T11, Human b-PD-L1-His. Briefly: MSD-SET, Fab, monovalent. The method, then: as §2
The source holds these as a separate data set.

Experiment [17] deals with T6, Human PD-L1-HIS. Briefly: ForteBio, IgG, monovalent. The source holds these as a separate data set.
The target in experiment [18] is T7, Human PD-L2-HIS. Briefly: ForteBio, IgG, monovalent. This is another data set of the same source.
Experiment [19] concerns the target T1, Mouse PD-L1-Fc. Briefly: ForteBio, IgG, avid. This is another data set of the same source.
In experiment [20] the target is T2, Cyno PD-L1-Fc. Briefly: ForteBio, IgG, avid. The source holds these as a separate data set.
Experiment [21] has as its target T3, Cyno PD-L2-Fc. As to the kind of experiment: ForteBio, IgG, avid. The source holds these as a separate data set.
Experiment [22] has as its target T4, Mouse PD-L2-Fc. As to the kind of experiment: ForteBio, IgG, avid. This is another data set of the same source.

Residue numbers refer to the chain shown, from its start. Where two headings read alike, the source gives them in different places.

T1 sequence (Q9EP73 19-239 limits assumed): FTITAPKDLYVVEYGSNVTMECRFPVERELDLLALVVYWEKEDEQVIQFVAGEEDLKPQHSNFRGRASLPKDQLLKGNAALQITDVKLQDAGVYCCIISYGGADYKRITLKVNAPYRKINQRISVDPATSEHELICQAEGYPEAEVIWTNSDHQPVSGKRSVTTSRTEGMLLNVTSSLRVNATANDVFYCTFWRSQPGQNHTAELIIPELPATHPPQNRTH

B1: BiPDL4-44 (antibody, V domains shown)
VH: QVQLVESGGGVIQPGRSLRLSCAASGFTFSAYLMHWVRQAPGKGLEWVAAIGYDGMNKYYADSVKGRFTISRDNSKNTLYLQMNSLRAEDTAVYYCARAGIEYSYAYTDYWGQGTLVTVSS
VL: EIVLTQSPGTLSLSPGERATLSCRASHSVVSSYLAWYQQKPGQAPRLLIYGASSREDGIPDRFSGSGSGTDFTLTISRLEPEDFAVYYCVQFGWWPPRTFGGGTKVEIK
notes: Fourth generation, IgG
With B1, the Kd (as a rule, the free concentration of one partner at which half of the binding sites on the other are occupied at equilibrium, for simple one-to-one binding) in [1] was 0.793 nM; in [2], 0.555 nM; in experiment [3], 0.417 nM; in experiment [4], 4.14 nM; in experiment [7], 7.89 nM; in experiment [8] it was 0.889 nM. Besides, the “EC50 (read off the curve); Fold induction of luciferase, Promega: CHO-PD-L1/PD-L2 dual cells with PD-1 Jurkat reporter cells (PD-L1 and PD-L2 not separable)” value in experiment [5] and in experiment [6] was around 1 nM throughout.

B2: BiPDL4-34 Fab (Fab, V domains shown)
VH: B1 VH
VL: B1 VL with H27Q, S28F, V30Y, Y33D, S54A, E56A, D57A, V90M
notes: Fab made by papain digestion of the IgG
Regarding B2, the Kd in experiment [9] stood at 0.56 nM; in experiment [10], 2.17 nM; in [11], 0.56 nM; in experiment [12], 6.85 nM; in experiment [13] it was 0.052 nM; in [14], 0.96 nM. Further, the dissociation constant (Kd) in [15] was found to be 0.052 nM; in [16] it was 0.96 nM.

B3: BiPDL4-24 (antibody, V domains shown)
VH: B1 VH with I12V, S30D, A31E, L33G, A50V, M56L
VL: B1 VL with H27N, S53A, E56A, D57N
notes: Fourth generation, IgG
Regarding B3, the Kd amounted to 0.677 nM in [1]; 0.838 nM in experiment [2]; 0.458 nM in [3]; 6.77 nM in [4]; 7.24 nM in [7]; 0.497 nM in experiment [8].

B4: BiPDL4-24 Fab (Fab, V domains shown)
VH: B1 VH with I12V, S30D, A31E, L33G, A50V, M56L
VL: B1 VL with H27N, S53A, E56A, D57N
notes: as for B2
In the case of B4, the dissociation constant Kd amounted to 0.475 nM in [9], 6.57 nM in [10] and 0.12 nM in [15].

B5: BiPDL4-14 Fab (Fab, V domains shown)
VH: B1 VH with I12V, S30D, A31E, L33G, A50V, M56L
VL: B1 VL with H27Q, S28F, V30Y, Y33D, S54T, E56K, D57T, V90L
notes: as for B2
Consider B5, for which the Kd was 0.402 nM in experiment [9]; 0.692 nM in [10]; 0.402 nM in [11]; 2.26 nM in experiment [12]; 0.11 nM in [13]; 0.12 nM in experiment [14]. In addition, the values for the equilibrium dissociation constant (Kd) in experiment [15] and in experiment [16] were 0.11 nM and 0.12 nM, respectively.

B6: BiPDL4-44 Fab (Fab, V domains shown)
VH: B1 VH
VL: B1 VL
notes: as for B2
In the case of B6, the dissociation constant Kd was determined as 0.437 nM in experiment [9], 6 nM in [10] and 0.15 nM in experiment [15].

B7: BiPDL3-34 (antibody, V domains shown)
VH: QVQLQQWGAGLLKPSETLSLTCAVYGGSLSGYPWSWIRQPPGKGLEWIGETDVSGWTDYNPSLKSRVTISVDTSKNQFSLKLSSVTAADTAVYYCARDGRRMGTPSFDIWGQGTMVTVSS
VL: DIQMTQSPSSVSASVGDRVTITCRASQDISSFLAWYQQKPGKAPKLLIYAASSLQDGVPSRFSGSGSGTDFTLTISSLQPEDFATYYCQKSVYFPPTFGGGTKVEIK
notes: IgG; also called ADI-37468; 37468
Consider B7, for which the dissociation constant (Kd) turned out to be 17.8 nM in experiment [17]; 0.844 nM in experiment [18]; 31.6 nM in experiment [19]; 0.431 nM in experiment [20]; 0.677 nM in [21]; 0.484 nM in experiment [22].

B8: BiPDL3-24 (antibody, V domains shown)
VH: B7 VH
VL: B7 VL with D28G, S31N, D56S, S91A
notes: IgG; also called ADI-37465; 37465
In the case of B8, the equilibrium dissociation constant (Kd) in experiment [17] is 13.4 nM; in experiment [18], 0.868 nM; in [19], 2.65 nM; in [20] it was 0.396 nM; in experiment [21], 0.605 nM; in [22], 0.553 nM.

B9: BiPDL3-13 Fab (Fab, V domains shown)
VH: B7 VH
VL: B7 VL with M4L, D28G, F32W, D56S, K90Q, S91Y
notes: as for B2
Molecule B9 returned a Kd in [11] of 16 nM.

B10: BiPDL3-44 (antibody, V domains shown)
VH: B7 VH
VL: B7 VL with D28G, S31T, S53A, Q55H, D56S, K90R, S91A
notes: IgG; also called ADI-37475; 37475
B10: the Kd in [17] is 30.2 nM; in [18] it was 1.45 nM; in experiment [19] it was 42 nM; in [20] it was 0.455 nM; in [21], 0.603 nM; in experiment [22], 0.552 nM.
